Test results as given in paper PMC10877974.

Columns and labels:
[1] = molecular target: Ad35K++ (recombinant adenovirus serotype 35 fiber knob protein with affinity-enhancing mutations) (adenovirus serotype 35); test: SEC; Superdex 200 Increase 10/300 GL, 1x Tris-buffered saline, 1 mL/min; cGMP grade Ad35K++
[2] = molecular target: Ad35K++ (recombinant adenovirus serotype 35 fiber knob protein with affinity-enhancing mutations) (adenovirus serotype 35); test: SDS-PAGE of unboiled sample; reduced 4-15% gradient gel, Laemmli sample buffer with beta-mercaptoethanol, sample not boiled, Coomassie Blue

“Ad35K++ (recombinant adenovirus serotype 35 fiber knob protein with affinity-enhancing mutations) (domain or fragment)” gave a stoichiometry N [1] of 3 and a stoichiometry N [2] of 3.
